This series in a line: yeast display, Sf9 membrane polyspecificity reagent, FACS + sequencing; frameworks hold sequencing errors. The method in brief:
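Polyreactivity labels are assigned by the sorting gate from which each nanobody was recovered. The gates were low and high (top ~1%), set on anti-HA fluorescence for expression and streptavidin fluorescence for reagent binding. Before sorting, galactose-induced (36–48 hours) yeast display cells were stained for 1 hour at 4 °C with 10% biotinylated, detergent-solubilized Sf9 membrane reagent.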
Consider “QVQLVESGGGLVQAGGSLRLSCAASGRTFRYYALGWYRQAHGKERELVPRITRGATTNYADSVKGRFTISRDNAKNTVYLQMNSLKPEDTAVYYCAVTPLYGSDRRGWFSSDYWGQGTHVTVSS”, for which the “polyreactivity (PSR sort gate)” value is on record as “high polyreactivity”.
Under “QVQLVESGGGLVQAGGSLRLSCAASGRTFRYYAMGWYRPAPGKERELVAAINWSGGTTYYADSVKGRFTISRDNAKNTVYLQMNSLKPEDTAVYYCAAVYGYPSTSRYDYWGQGTQVTVSS” stands “high polyreactivity”; under “QVQLVESGGGLVQAGGSLRLSCAASGRTFRYYAMGWYRQAPGKERELFAAITSTGSTNYADSVKGRFTISRDNAKNTVYLQMNSLKPEDTAVYYCAARVNGKRRRYDYWGQGTQVTVSS”, “high polyreactivity”.
Under “QVQLVESGGGLVQAGGSLRLSCAASGRTFRYYAMGWYRQAPGKERELVAAINRGGSTYYADSVKGRFTISRDNAKNTVYLQMNSLKPEDTAVYYCNVDKYRIVGFHSPYDYWGQGTQVTVSS” stands “high polyreactivity”; under “QVQLVESGGGLVQAGGSLRLSCAASGRTFRYYAMGWYRQAPGKERELVAAITSGGSTNYADSVKGRFTISRDNAKNTVYLQMNSLKPEDTAVYYCAAYWRSRNRFFWGQGTQVTVSS”, “high polyreactivity”.
The same measure for “QVQLVESGGGLVQAGGSLRLSCAASGRTFRYYAMGWYRQAPGKERELVADISWSGGRTTYADSVKGRFTISRDNAKNTVYLQMNSLKPEDTAVYYCAKVLYYPSHVSWGQGTQVTVSS”: “high polyreactivity”; for “QVQLVESGGGLVQAGGSLRLSCAASGRTFRYYAMVWYRQAPGKEREWVASISSSGARTYYADSVKGRFTISRDNAKNTVYLRMNSQKPEDSAVYYCAASQRSGHPSYDYWGQGTQVTVSS”: “high polyreactivity”.
Consider “QVQLVESGGGLVQAGGSLRLSCAASGRTFRYYTKGWYRQAPGKERELVAAITYSGGSTYYADSVKGRFTISRDNAMNTVYLQMNSLKPVDTAVYYCAAKASGNYYYYWGQGTQVTVSS”, for which the “polyreactivity (PSR sort gate)” value is given as “high polyreactivity”.
Turning to “QVQLVESGGGLVQAGGSLRLSCAASGRTFSAYAMGWYRQAPGKEREFVAAITFNTGSTYYADSVKGRFTISRDNAKNTVYLQMNSLKPEDTAVYYCAAALVGSVGYKGFDGFDYWGQGTQVTVSS”, the “polyreactivity (PSR sort gate)” value is reported as “low polyreactivity”.
Under “QVQLVESGGGLVQAGGSLRLSCAASGRTFSAYAMGWYRQAPGKERELVADIRRGGGTNYADSVKGRFTISRDNAKNTVYLQMNSLKPEDTAVYYCAAGYLRTYTRRYYWGQGTQVTVSS” stands “high polyreactivity”; under “QVQLVESGGGLVQAGGSLRLSCAASGRTFSAYTMGWYRQAPGKERELVAAITSGTSTYYADSVKGRFTISRDNAKNTVYLQMNSLKPEDTAVYYCNARDSGRWWHIGQSGEDYWGQGTQVTVSS”, “low polyreactivity”; under “QVQLVESGGGLVQAGGSLRLSCAASGRTFSDYAMGWYRQAPGKERELVAAISNGGNTYADSVKGRFTISRDNAKNTVYLQMNSLKPEDTAVYYCNKESGDTARQSIMPSGRGDYWGQGTQVTVSS”, “low polyreactivity”.
The same measure for “QVQLVESGGGLVQAGGSLRLSCAASGRTFSGNAMGWYRQAPGKEREFVAVISSNGGSTYYADSVKGRFTISRDNAKNTVYLQMNSLKPEDTAVYYCNARYWRGWGGRVSKYGYWGQGTQVTVSS”: “high polyreactivity”; for “QVQLVESGGGLVQAGGSLRLSCAASGRTFSGNAMGWYRQAPGKERELVAAITGRGGTTYYADSVKGRFTISRDNAKNTVYLQMNSLKPEDTAVYYCAADTKLSYQWFDYWGQGTQVTVSS”: “high polyreactivity”; for “QVQLVESGGGLVQAGGSLRLSCAASGRTFSGNTMGWYRQAPGKERELVAAITGRGGSTYYADSVKGRFTISRDNAKNTVYLQMNSLKPEDTAVYYCAALRYTFAGRFDYWGQGTQVTVSS”: “high polyreactivity”.
The same measure for “QVQLVESGGGLVQAGGSLRLSCAASGRTFSGYAMGWYRQAPGKERELVAAIDRGDGTNYADSVKGRYTISRDNAKNTVYLQMNSQIPEDTAVYYCAGDYSDGSTSLTYTGFVYWGQGTQVTVSS”: “low polyreactivity”.
Consider “QVQLVESGGGLVQAGGSLRLSCAASGRTFSGYAMGWYRQAPGKERELVAAISWRGGRTYYADSVKGRFTISRDNAKNTVYLQMNSLKPEDTAVYYCATTVGDAGRRYYYWGQGTQVTVSS”, for which the “polyreactivity (PSR sort gate)” value was “high polyreactivity”.
As to “QVQLVESGGGLVQAGGSLRLSCAASGRTFSIYAMGWYRQAPGKERELVAAISRGVTTYADSVKGRFTISRDNAKNTVYLQMNSLKPEDTAVYYCNARTVVYVRGGYWGQGTQVTVSS”, the “polyreactivity (PSR sort gate)” value is given as “low polyreactivity”.
The same measure for “QVQLVESGGGLVQAGGSLRLSCAASGRTFSKYAMGWYRQAPGKERELVAAIRWSGGSTYYADSVKGRFTISRDNAKNTVYLQMNSLKPEDTAVYYCAKRSRGLKFDYWGQGTQVTVSS”: “high polyreactivity”; for “QVQLVESGGGLVQAGGSLRLSCAASGRTFSKYTMGWYRQEPGKESELVAVISRSGTRTYYADSVKGRFTISRDNANNTVYLQMNSMKPEDTAVYYCAAKDERRSFGMGYWGQGTQVTVTS”: “high polyreactivity”; for “QVQLVESGGGLVQAGGSLRLSCAASGRTFSLNAMGWYRQAPGKERELVAAINRGGTTYYADSVKGRFTISRDNAKNTVYVQMNSLKPEDTAVYYCAARYISSYDWGQGTQVTVSS”: “high polyreactivity”.
The same measure for “QVQLVESGGGLVQAGGSLRLSCAASGRTFSLYTMGWYRQAPWKERELVASITSSGSTSYADSVKGRFTISRDNAKNTVYLQMNSLKPEDTAVYYCNAAVSYPKYPYVSPGVPSYDYWGQGTQVTVSS”: “low polyreactivity”; for “QVQLVESGGGLVQAGGSLRLSCAASGRTFSNNAMGWYRQAPGKERELVADITYSSDSTYYADSVKGRFTISRDNAKNTVYLQMNCLKPEDTAVYYCAADVVVGGSGSEYYYWGQGTQVTVSS”: “low polyreactivity”.
Under “QVQLVESGGGLVQAGGSLRLSCAASGRTFSQNAMGWYRQAPGKERELVAAIRRGGSTNYADSVKGRFTISRDNEKNTVYLQMHSLKPEDTAVYYCAADLRRNGWGFDYWGQGTQVTVSS” stands “high polyreactivity”; under “QVQLVESGGGLVQAGGSLRLSCAASGRTFSRNAMGWYRPAPGKERQLVAAIRGSGTGTYYADSVKGRFTISRDNAKNTVYLQMNSLKPEDTPVYYSNADFISTRPPKATDEDYWGQGTQVTVSS”, “high polyreactivity”.
For “QVQLVESGGGLVQAGGSLRLSCAASGRTFSRNAMGWYRQAPGKERELVATITSDGSTNYADSVKGRFTISRDNAKITVYLQMNSLKPEDTAVYYCAAGEQSSIIGAHDYWGQGTQVTVSS”, the “polyreactivity (PSR sort gate)” value is listed as “low polyreactivity”.
The same measure for “QVQLVESGGGLVQAGGSLRLSCAASGRTFSRYAMGWYRQAPGKERELVASITSRGGSTYYADSVKGRFTISRDNAKNTVYLQMNSLKPEDTAVYYCNVKPTYSTRYWEDYWGQGTQVTVSS”: “high polyreactivity”; for “QVQLVESGGGLVQAGGSLRLSCAASGRTFSRYAMGWYRQAPGKERELVATINTRAGITNYPDSVKGRFTISRDNAKNTVYLQMNSLKPEDTAVYYCNRGRPGGPSWYHYVYWGQGTQVTVSS”: “high polyreactivity”.
Under “QVQLVESGGGLVQAGGSLRLSCAASGRTFSRYTMGWYRQAPGKEREFVAAIDRGGGTTYYADSVKGRFTISRDNAKNTVYLQMNSLKPEDTAVYYCAAERNYWSTQYYYWGQGTQVTVSS” stands “high polyreactivity”; under “QVQLVESGGGLVQAGGSLRLSCAASGRTFSRYVMGWYRQAPGKERELVATISDVGNTYYADSVKGRFTISRDNAKNTVYLQMNSLKPEDTAVYYCNRVYFTSRQGQMYYWGQGTQVTVSS”, “high polyreactivity”.

(Values after the nanobody polyreactivity screen of Harvey et al. (2022).)
